Columns and labels:
TE14 cells = experiment: ADC assay combining anti-GPC-1 antibody and MMAF binding secondary antibody, TE14 cells; format: cell-based; conditions: primary antibody plus MMAF secondary antibody
Method: FIG. 1 depicts a schematic diagram of an ADC used in an assay. This Example used a secondary antibody (MORADEC) to the anti-GPC1 antibody made in Example 1, to which an anticancer agent (MMAF) was bound via a linker.
2000 TE14 cells were added to a 96-well plate at 80 μl. The cells were cultured overnight at 37° C. in a 5% CO2 incubator. The next day, 10 μl of an anticancer agent bound secondary antibody and 10 μl of a primary antibody concentrated 10-fold relative to the final concentration was added to each well, so that the total amount was 100 μl. The cells were cultured for 6 days at 37° C. in a 5% CO2 incubator. The cell viability was measured by using a CellTiter-Glo Luminescent Cell Viability Assay reagent to detect the amount of ATP. RPMI1640+10% FBS+1% PS was used as the medium. The final concentrations of the primary antibody were 0, 0.004, 0.0156, 0.0625, 0.25, and 1.0 nM. 2 μg/ml of Fab-aMFc-CL-MMAF (model number: AM202AF-50, Moradec) was used as the secondary antibody.

DU145 cells = experiment: ADC assay combining anti-GPC-1 antibody and MMAF binding secondary antibody in DU145 cells; format: cell-based; conditions: 3 days; for EC50 values against DU145 cells: primary antibody plus MMAF secondary antibody
Method: 2000 DU145 cells were added to a 96-well plate at 80 μl. The cells were cultured overnight at 37° C. in a 5% CO2 incubator. The next day, 10 μl each of anticancer agent binding secondary antibody (2 μg/ml) and primary antibody concentrated 10-fold relative to the final concentration was added to each well, so that the total amount was 100 μl. The cells were cultured for 3 days at 37° C. in a 5% CO2 incubator. The cell viability was measured by using a CellTiter-Glo Luminescent Cell Viability Assay reagent to detect the amount of ATP. RPMI1640+10% FBS+1% PS was used as the medium. The final concentrations of the primary antibodies were […]. 2 μg/ml of Fab-aMFc-CL-MMAF (model number AM202AF-50, Moradec) was used as the secondary antibody. The EC50 value was analyzed with GraphPad Prism 6. The same experiment was conducted using 4000 MDA-MB231 cells as the control.

Row | EC50 values against TE14 cells (TE14 cells) | EC50 values against DU145 cells (DU145 cells) | Molecule | growth suppressing effect against DU145 cells (DU145 cells; primary antibody plus MMAF secondary antibody 2 μg/ml)
1 | excellent EC50 values | excellent EC50 values | clone 02a010: anti-human Glypican-1 antibody, heavy chain SEQ ID NO: 174, light chain SEQ ID NO: 176 (antibody) heavy: MKHLWFFLLLVAAPRWVLSEVKLVESGGGLVKPGGSRKLSCAASGFTFSDYGMHWVRQAPEKGLEWVAYINSGSSTIYYADTVKGRFTISRDNAKNTLFLQMTSLRSGDTAMYYCARHSYYSYDVGGDYVMDYWGQGTSVTVSSAKTTAPSVYPLAPVCGDTTGSSVTLGCLVKGYFPEPVTLTWNSGSLSSGVHTFPAVLQSDLYTLSSSVTVTSSTWPSQSITCNVAHPASSTKVDKKIEPRGPTIKPCPPCKCPAPNLLGGPSVFIFPPKIKDVLMISLSPIVTCVVVDVSEDDPDVQISWFVNNVEVHTAQTQTHREDYNSTLRVVSALPIQHQDWMSGKEFKCKVNNKDLPAPIERTISKPKGSVRAPQVYVLPPPEEEMTKKQVTLTCMVTDFMPEDIYVEWTNNGKTELNYKNTEPVLDSDGSYFMYSKLRVEKKNWVERNSYSCSVVHEGLHNHHTTKSFSRTPGK light: MRLLAQLLGLLMLWVPGSSGDIVLTQSPKFMSTSVGDRVSITCKASQDVGTAVAWYQQKPGQSPKLLIYWASTRHTGVPDRFTGSGSGTDFTLTISNVQSEDLADYFCQQYSSYPLTFGAGTKLEIKRADAAPTVSIFPPSSEQLTSGGASVVCFLNNFYPKDINVKWKIDGSERQNGVLNSWTDQDSKDSTYSMSSTLTLTKDEYERHNSYTCEATHKTSTSPIVKSFNRNEC | high growth suppressing effect
2 | excellent EC50 values | excellent EC50 values | clone 02b006: anti-human Glypican-1 antibody, heavy chain SEQ ID NO: 194, light chain SEQ ID NO: 196 (antibody) heavy: MKHLWFFLLLVAAPRWVLSEVQLVESGGGLVKPGGSRKLSCAASGFTFSDYGMHWVRQAPEKGLEWVAYISSGSSTIYYADTVKGRFTISRDNAKNTLFLQMTSLRSEDTAIYYCVRHSYYNYDIGGYYAMDYWGQGTSVTVSSAKTTAPSVYPLAPVCGDTTGSSVTLGCLVKGYFPEPVTLTWNSGSLSSGVHTFPAVLQSDLYTLSSSVTVTSSTWPSQSITCNVAHPASSTKVDKKIEPRGPTIKPCPPCKCPAPNLLGGPSVFIFPPKIKDVLMISLSPIVTCVVVDVSEDDPDVQISWFVNNVEVHTAQTQTHREDYNSTLRVVSALPIQHQDWMSGKEFKCKVNNKDLPAPIERTISKPKGSVRAPQVYVLPPPEEEMTKKQVTLTCMVTDFMPEDIYVEWTNNGKTELNYKNTEPVLDSDGSYFMYSKLRVEKKNWVERNSYSCSVVHEGLHNHHTTKSFSRTPGK light: MRLLAQLLGLLMLWVPGSSGDIVLTQSPSSLSASLGERVSLTCRASQEISGYLSWLQQKPDGTIKRLIYAASTLDSGVPKRFSGSRSGSDYSLTISSLESEDFADYYCLQYASYPLTFGAGTKLEIKRADAAPTVSIFPPSSEQLTSGGASVVCFLNNFYPKDINVKWKIDGSERQNGVLNSWTDQDSKDSTYSMSSTLTLTKDEYERHNSYTCEATHKTSTSPIVKSFNRNEC | –
3 | excellent EC50 values | excellent EC50 values | clone 02a002: anti-human Glypican-1 antibody, heavy chain SEQ ID NO: 166, light chain SEQ ID NO: 168 (antibody) heavy: MKHLWFFLLLVAAPRWVLSEVKLVESGGGLVKPGGSRKLSCAASGFTFSDYGMHWVRQAPEKGLEWVAYISSGSSTIYYADTVKGRFTISRDNAKNTLFLQMTSLRSEDTAMYYCARHSYYSYDVGGDYVMDYWGQGTSVTVSSAKTTAPSVYPLAPVCGDTTGSSVTLGCLVKGYFPEPVTLTWNSGSLSSGVHTFPAVLQSDLYTLSSSVTVTSSTWPSQSITCNVAHPASSTKVDKKIEPRGPTIKPCPPCKCPAPNLLGGPSVFIFPPKIKDVLMISLSPIVTCVVVDVSEDDPDVQISWFVNNVEVHTAQTQTHREDYNSTLRVVSALPIQHQDWMSGKEFKCKVNNKDLPAPIERTISKPKGSVRAPQVYVLPPPEEEMTKKQVTLTCMVTDFMPEDIYVEWTNNGKTELNYKNTEPVLDSDGSYFMYSKLRVEKKNWVERNSYSCSVVHEGLHNHHTTKSFSRTPGK light: MRLLAQLLGLLMLWVPGSSGDIVMSQSPKFMSTSVGDRVSITCKASQDVGTAVAWYQQKPGQSPKLLIYWASTRHTGVPDRFTGSGSGTDFTLTISNVQSEDLADYFCQQYSSYPLTFGAGTKLEIKRADAAPTVSIFPPSSEQLTSGGASVVCFLNNFYPKDINVKWKIDGSERQNGVLNSWTDQDSKDSTYSMSSTLTLTKDEYERHNSYTCEATHKTSTSPIVKSFNRNEC | –
4 | excellent EC50 values | excellent EC50 values | clone 02a014: anti-human Glypican-1 antibody, heavy chain SEQ ID NO: 178, light chain SEQ ID NO: 180 (antibody) heavy: MKHLWFFLLLVAAPRWVLSEVQLQQSGPELVKPGASVKISCKASGYSFTGYYIHWVKQSPEKSLEWIGEINPSTGDITYNQKFKAKATLTVDKSSSTAYMQLKSLTSDDSAVYYCARERNYDRFAYWGQGTLVTVSSAKTTAPSVYPLAPVCGDTTGSSVTLGCLVKGYFPEPVTLTWNSGSLSSGVHTFPAVLQSDLYTLSSSVTVTSSTWPSQSITCNVAHPASSTKVDKKIEPRGPTIKPCPPCKCPAPNLLGGPSVFIFPPKIKDVLMISLSPIVTCVVVDVSEDDPDVQISWFVNNVEVHTAQTQTHREDYNSTLRVVSALPIQHQDWMSGKEFKCKVNNKDLPAPIERTISKPKGSVRAPQVYVLPPPEEEMTKKQVTLTCMVTDFMPEDIYVEWTNNGKTELNYKNTEPVLDSDGSYFMYSKLRVEKKNWVERNSYSCSVVHEGLHNHHTTKSFSRTPGK light: MRLLAQLLGLLMLWVPGSSGSIVMTQTPALMAASPGEKVTITCSVSSSISSSNLHWYQQKSETSPKPWIYGTSNLASGVPVRFSGSGSGTSYSLTISSMEAEDAATYYCQQWSSYPLTFGAGTKLEIKRADAAPTVSIFPPSSEQLTSGGASVVCFLNNFYPKDINVKWKIDGSERQNGVLNSWTDQDSKDSTYSMSSTLTLTKDEYERHNSYTCEATHKTSTSPIVKSFNRNEC | –
5 | excellent EC50 values | excellent EC50 values | clone 18: anti-Glypican-1 antibody, heavy chain SEQ ID NO: 202, light chain SEQ ID NO: 204; sequence from WO 2015/098112 (antibody) heavy: AVTLDESGGGLQTPGGTLSLVCKASGFDFSSVNMFWVRQAPGKGLEFVAGIDNDATFTLYGSAVKGRASISRDNGQSTVRLQLNNLRAEDTGTYYCAKTLCSTTWGCGAYSAGDIDAWGHGTEVIVSS light: ASTQPSSVSANPGETVKITCSGGGSSGYGYYGWYQQKSPGSAPVTVIYNNNKRPTDIPSRFSGALSGSTATLTITGVQVEDEAVYYCGSRDNTYVGIFGAGTTLTVL | –
6 | excellent EC50 values | excellent EC50 values | clone 01a042: anti-human Glypican-1 antibody, heavy chain SEQ ID NO: 162, light chain SEQ ID NO: 164 (antibody) heavy: MKHLWFFLLLVAAPRWVLSQVQLQQPGAELAKPGASVKMSCKASGYTFTRYWMHWVKQRPGQGLEWIGYINPSSGYTEYNQKFKDKATLTADKSSSTAYMQLSSLTSEDSAVYYCVRLGDYSYYFDYWGQGTTLTVSSAKTTAPSVYPLAPVCGDTTGSSVTLGCLVKGYFPEPVTLTWNSGSLSSGVHTFPAVLQSDLYTLSSSVTVTSSTWPSQSITCNVAHPASSTKVDKKIEPRGPTIKPCPPCKCPAPNLLGGPSVFIFPPKIKDVLMISLSPIVTCVVVDVSEDDPDVQISWFVNNVEVHTAQTQTHREDYNSTLRVVSALPIQHQDWMSGKEFKCKVNNKDLPAPIERTISKPKGSVRAPQVYVLPPPEEEMTKKQVTLTCMVTDFMPEDIYVEWTNNGKTELNYKNTEPVLDSDGSYFMYSKLRVEKKNWVERNSYSCSVVHEGLHNHHTTKSFSRTPGK light: MRLLAQLLGLLMLWVPGSSGDVVMTQTPLSLPVSLGDQASISCRSSQSIVHSNGNTYLEWYLQKPGQSPKLLIYKVSNRFSGVPDRFSGSGSGTDFTLKISRVEAEDLGVYYCFQGSHVPWTFGGGTKLELKRADAAPTVSIFPPSSEQLTSGGASVVCFLNNFYPKDINVKWKIDGSERQNGVLNSWTDQDSKDSTYSMSSTLTLTKDEYERHNSYTCEATHKTSTSPIVKSFNRNEC | –

Reference: patent US20200308299A1, “ANTI-GPC-1 ANTIBODY” (National University Corporation Kochi University, priority 2017, published 2020)
